According to patent US20160102129A1 (Novo Nordisk, published 2016):
*1 amine or outer side, *2 acyl side, *3 side chain or, on linkers, in order; H or OH if unused. Where no end group is shown, it is not given here. Side-chain parts run from the residue outwards. [ ]: non-standard residue; d: D form. The star is where a group is joined. C20 diacid = O=C(O)CCCCCCCCCCCCCCCCCCC(=O)*; C18 diacid = O=C(O)CCCCCCCCCCCCCCCCC(=O)*; C16 diacid = O=C(O)CCCCCCCCCCCCCCC(=O)*; γGlu = O=C(O)[C@H](CCC(=O)[*:2])N[*:1]; C14 diacid = O=C(O)CCCCCCCCCCCCC(=O)*; Desaminohistidyl = O=C(CCc1c[nH]cn1)*; Ac4c = NC1(C(=O)O)CCC1; AEEA = NCCOCCOCC(=O)O; Aib = CC(C)(N)C(=O)O

B1: N^ε34-[2-[2-[2-[[2-[2-[2-[[(4S)-4-carboxy-4-[[(4S)-4-carboxy-4-(17-carboxyheptadecanoylamino)butanoyl]amino]butanoyl]amino]ethoxy]ethoxy]acetyl]amino]ethoxy]eth … (peptide)
peptide: [Desaminohistidyl][Aib]HGTFTSDVSKYLEEQAAREFIAWLLK([Ado-Ado-γGlu-γGlu-C18 diacid])T-NH2
B2: N^ε34-[2-[2-[2-[[2-[2-[2-[[(4S)-4-carboxy-4-[[(4S)-4-carboxy-4-(15-carboxypentadecanoylamino)butanoyl]amino]butanoyl]amino]ethoxy]ethoxy]acetyl]amino]ethoxy]eth … (peptide)
peptide: [Desaminohistidyl][Aib]HGTFTSDVSKYLEEQAAREFIAWLLK([Ado-Ado-γGlu-γGlu-C16 diacid])T-NH2
B3: N^ε34-[2-[[(2S)-2-[[(2S)-4-carboxy-2-[[2-[[(2S)-2-[[(4S)-4-carboxy-4-[[(4S)-4-carboxy-4-(17-carboxyheptadecanoylamino)butanoyl]amino]butanoyl]amino]-3-hydroxypr … (peptide)
peptide: [Desaminohistidyl][Ac4c]HGTFTSDVSKYLEEQAAREFIAWLLK([Gly-Ser-Glu-Gly-Ser-γGlu-γGlu-C18 diacid])T-NH2
B4: N^ε34-[2-[2-[2-[[2-[2-[2-[[(4S)-4-carboxy-4-[[(4S)-4-carboxy-4-(19-carboxynonadecanoylamino)butanoyl]amino]butanoyl]amino]ethoxy]ethoxy]acetyl]amino]ethoxy]etho … (peptide)
peptide: [Desaminohistidyl][Aib]HGTFTSDVSKYLEEQAAREFIAWLLK([Ado-Ado-γGlu-γGlu-C20 diacid])T-NH2
B5: N^ε34-[2-[[(2S)-2-[[(4S)-4-carboxy-4-[[(4S)-4-carboxy-4-(17-carboxyheptadecanoylamino)butanoyl]amino]butanoyl]amino]-3-hydroxypropanoyl]amino]acetyl]-[Imp7,Aib8 … (peptide)
peptide: [Desaminohistidyl][Aib]HGTFTSDVSKYLEEQAAREFIAWLLK([Gly-Ser-γGlu-γGlu-C18 diacid])T-NH2
SMILES: CC[C@H](C)[C@H](NC(=O)[C@H](Cc1ccccc1)NC(=O)[C@H](CCC(=O)O)NC(=O)[C@H](CCCNC(=N)N)NC(=O)[C@H](C)NC(=O)[C@H](C)NC(=O)[C@H](CCC(N)=O)NC(=O)[C@H](CCC(=O)O)NC(=O)[C@H](CCC(=O)O)NC(=O)[C@H](CC(C)C)NC(=O)[C@H](Cc1ccc(O)cc1)NC(=O)[C@H](CCCCN)NC(=O)[C@H](CO)NC(=O)[C@@H](NC(=O)[C@H](CC(=O)O)NC(=O)[C@H](CO)NC(=O)[C@@H](NC(=O)[C@H](Cc1ccccc1)NC(=O)[C@@H](NC(=O)CNC(=O)[C@H](Cc1c[nH]cn1)NC(=O)C(C)(C)NC(=O)CCc1c[nH]cn1)[C@@H](C)O)[C@@H](C)O)C(C)C)C(=O)N[C@@H](C)C(=O)N[C@@H](Cc1c[nH]c2ccccc12)C(=O)N[C@@H](CC(C)C)C(=O)N[C@@H](CC(C)C)C(=O)N[C@@H](CCCCNC(=O)CNC(=O)[C@H](CO)NC(=O)CC[C@H](NC(=O)CC[C@H](NC(=O)CCCCCCCCCCCCCCCCC(=O)O)C(=O)O)C(=O)O)C(=O)N[C@H](C(N)=O)[C@@H](C)O
B6: N^ε34-[2-[[(2S)-2-[[(2S)-4-carboxy-2-[[2-[[(2S)-2-[[(4S)-4-carboxy-4-[[(4S)-4-carboxy-4-(17-carboxyheptadecanoylamino)butanoyl]amino]butanoyl]amino]-3-hydroxypr … (peptide)
peptide: [Desaminohistidyl]GHGTFTSDVSRYLEEQAAREFIAWLLK([Gly-Ser-Glu-Gly-Ser-γGlu-γGlu-C18 diacid])T-NH2
B7: N^ε34-[(4S)-4-carboxy-4-[[(4S)-4-carboxy-4-[[(4S)-4-carboxy-4-[[(4S)-4-carboxy-4-(17-carboxyheptadecanoylamino)butanoyl]amino]butanoyl]amino]butanoyl]amino]buta … (peptide)
peptide: [Desaminohistidyl][Aib]HGTFTSDVSKYLEEQAAREFIAWLLK([γGlu-γGlu-γGlu-γGlu-C18 diacid])T-NH2
SMILES: CC[C@H](C)[C@H](NC(=O)[C@H](Cc1ccccc1)NC(=O)[C@H](CCC(=O)O)NC(=O)[C@H](CCCNC(=N)N)NC(=O)[C@H](C)NC(=O)[C@H](C)NC(=O)[C@H](CCC(N)=O)NC(=O)[C@H](CCC(=O)O)NC(=O)[C@H](CCC(=O)O)NC(=O)[C@H](CC(C)C)NC(=O)[C@H](Cc1ccc(O)cc1)NC(=O)[C@H](CCCCN)NC(=O)[C@H](CO)NC(=O)[C@@H](NC(=O)[C@H](CC(=O)O)NC(=O)[C@H](CO)NC(=O)[C@@H](NC(=O)[C@H](Cc1ccccc1)NC(=O)[C@@H](NC(=O)CNC(=O)[C@H](Cc1c[nH]cn1)NC(=O)C(C)(C)NC(=O)CCc1c[nH]cn1)[C@@H](C)O)[C@@H](C)O)C(C)C)C(=O)N[C@@H](C)C(=O)N[C@@H](Cc1c[nH]c2ccccc12)C(=O)N[C@@H](CC(C)C)C(=O)N[C@@H](CC(C)C)C(=O)N[C@@H](CCCCNC(=O)CC[C@H](NC(=O)CC[C@H](NC(=O)CC[C@H](NC(=O)CC[C@H](NC(=O)CCCCCCCCCCCCCCCCC(=O)O)C(=O)O)C(=O)O)C(=O)O)C(=O)O)C(=O)N[C@H](C(N)=O)[C@@H](C)O
B8: N^ε34-[2-[2-[2-[[2-[2-[2-[[(4S)-4-carboxy-4-[[(4S)-4-carboxy-4-(13-carboxytridecanoylamino)butanoyl]amino]butanoyl]amino]ethoxy]ethoxy]acetyl]amino]ethoxy]ethox … (peptide)
peptide: [Desaminohistidyl][Aib]HGTFTSDVSKYLEEQAAREFIAWLLK([Ado-Ado-γGlu-γGlu-C14 diacid])T-NH2
B9: N^ε34-[(4S)-4-carboxy-4-[[(4S)-4-carboxy-4-[[2-[2-[2-[[(4S)-4-carboxy-4-[[(4S)-4-carboxy-4-(17-carboxyheptadecanoylamino)butanoyl]amino]butanoyl]amino]ethoxy]et … (peptide)
peptide: [Desaminohistidyl][Aib]HGTFTSDVSRYLEGRAAREFIAWLLK([γGlu-γGlu-AEEA-γGlu-γGlu-C18 diacid])GSG

Tests used:
human GLP-1 receptor [1] = target: T1, human GLP-1 receptor (human, UniProt P43220 24-463); assay: cell-based or functional assay
human glucagon receptor [2] = target: T2, human glucagon receptor (human, UniProt P47871 26-477); assay: cell-based or functional assay
T2 sequence (P47871 26-477): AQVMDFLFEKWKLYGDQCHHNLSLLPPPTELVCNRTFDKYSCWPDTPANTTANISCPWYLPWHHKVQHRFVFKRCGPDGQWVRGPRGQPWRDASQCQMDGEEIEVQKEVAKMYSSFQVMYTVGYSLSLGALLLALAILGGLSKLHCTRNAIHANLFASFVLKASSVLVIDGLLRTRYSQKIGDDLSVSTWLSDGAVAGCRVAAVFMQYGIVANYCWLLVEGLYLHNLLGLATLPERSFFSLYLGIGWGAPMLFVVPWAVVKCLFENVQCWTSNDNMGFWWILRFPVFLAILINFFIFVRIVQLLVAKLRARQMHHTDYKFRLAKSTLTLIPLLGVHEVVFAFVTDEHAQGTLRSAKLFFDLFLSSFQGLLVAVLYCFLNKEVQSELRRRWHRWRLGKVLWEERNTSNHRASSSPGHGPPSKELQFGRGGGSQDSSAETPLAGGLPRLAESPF

human glucagon receptor [3] = target: T2, human glucagon receptor; assay: SPA displacement of [125I]-glucagon from human glucagon receptor BHK membranes
Protocol: 1. For the receptor binding assay 50 μl of the assay buffer was added to each well of an assay plate. [0603] 2. Test compounds were serially diluted to give the following concentrations: 8×10EE-7 M, 8×10EE-8 M, 8×10EE-9 M, 8×10EE-10 M, 8×10EE-11 M, 8×10EE-12 M and 8×10EE-13 M. Twenty-five μl were added to appropriate wells in the assay plate. [0604] 3. Cell membrane aliquots were thawed and diluted to their working concentration. Fifty μl were added to each well in the assay plate. [0605] 4. WGA SPA beads were suspended in assay buffer at 20 mg/ml. The suspension was diluted to 10 mg/ml in assay buffer just prior to addition to the assay plate. Fifty μl were added to each well in the assay plate. [0606] 5. […] A 25 μl aliquot was reserved for measuring total counts/well. […] 6. The assay plate was incubated for 2 h at 25° C. [0608] 7. The assay plate was centrifuged for 10 min at 1500 rpm. [0609] 8. The assay plate was read in a Perkin Elmer TopCount NXT instrument.

human GLP-1 receptor [4] = target: T1, human GLP-1 receptor; assay: SPA displacement of [125I]GLP-1(7-36)NH2 from hGLP-1R BHK membranes
Protocol: The GLP-1 receptor binding of each derivatives were determined with competitive binding, displacing [¹²⁵I]GLP-1 bound to GLP-1 receptors expressed in cell membranes associated with wheat germ agglutinin (WGA) scintillation proximity assay (SPA) beads. Each derivative was added in a series of concentrations to isolated membranes comprising the human GLP-1 receptor and displacement of the labelled radioligand was monitored. The receptor binding was reported as the concentration at which half of the labelled ligand is displaced from the receptor, the IC⁵⁰ value.
1. For the receptor binding assay 50 μl of the assay buffer was added to each well of an assay plate. [0588] 2. Test compounds were serially diluted to give the following concentrations: 8×10EE-7 M, 8×10EE-8 M, 8×10EE-9 M, 8×10EE-10 M, 8×10EE-11 M, 8×10EE-12 M and 8×10EE-13 M. Twenty-five μl were added to appropriate wells in the assay plate. [0589] 3. Cell membrane aliquots were thawed and diluted to their working concentration. Fifty μl were added to each well in the assay plate. [0590] 4. WGA SPA beads were suspended in assay buffer at 20 mg/ml. The suspension was diluted to 10 mg/ml in assay buffer just prior to addition to the assay plate. Fifty μl were added to each well in the assay plate. [0591] 5. […] A 25 μl aliquot was reserved for measuring total counts/well. [0592] 6. The assay plate was incubated for 2 h at 30° C. [0593] 7. The assay plate was centrifuged for 10 min. [0594] 8. The assay plate was read in a Perkin Elmer TopCount NXT instrument.

Row | Binder | EC50 GLP-1R [pM], CRE luciferase reporter gene assay (human GLP-1 receptor [1]) | EC50 GlucagonR [pM], CRE luciferase reporter gene assay (human glucagon receptor [2]) | IC50 (human glucagon receptor [3]) | IC50 (human GLP-1 receptor [4])
1 | B1 | 5.2 pM | 120 pM | 4.3 nM | 0.5 nM
2 | B2 | 60.7 pM | 46.1 pM | 4 nM | 1.3 nM
3 | B3 | 5 pM | 40 pM | 4.1 nM | 0.1 nM
4 | B4 | 62.9 pM | 917 pM | 10.1 nM | 0.4 nM
5 | B5 | 7 pM | 45 pM | 4.3 nM | 0.2 nM
6 | B6 | 8 pM | 459 pM | 9.6 nM | 3.2 nM
7 | B7 | 7 pM | 44 pM | 4.2 nM | 0.3 nM
8 | B8 | 12 pM | 52.6 pM | 3.7 nM | 1.5 nM
9 | B9 | 6 pM | 158 pM | 11.4 nM | 1.7 nM
